For test [1], the system named is 5-HT1B/D receptors. Put plainly: Relative activity at 1 nM, [125I]cyanopindolol binding. Particulars: 1 nM peptide or amino acid, 0.3 nM [125I]cyanopindolol. The method, then: (§1) The binding experiments were performed as described above. […] Each value corresponds to the mean ± the standard deviation of three independent tests performed in quintuplicate.
In test [2] the test system is 5-HT1B/D receptors. Put plainly: Relative activity at 1 nM, [3H]5-HT binding. Particulars: 1 nM peptide or amino acid, 30 nM [3H]5-HT. The method, then: as §1
The subject of test [3] is mouse. Put plainly: Forced swimming test (Porsolt). Particulars: reference antidepressants. The class given is in vivo. From the text: The forced swimming test (Porsolt) is a simple test which cannot, under any circumstances, be assimilated with a model of “depression”.
Test [4] addresses 5-HT1B/1D receptors. Description: inhibition of 30 nM [3H]5-HT binding, 1 nM peptide.
Test [5] addresses T1, 5-HT1B receptor of rat brain (rat, UniProt P28564 1-386).
T1 construct: whole, on cells
Description: inhibition of 0.3 nM [125I]cyanopindolol binding, 1 nM peptide.

Test [6] addresses 5-HT1B/1D receptors. Description: inhibition of [3H]5-HT or [125I]cyanopindolol binding to 5-HT1B/1D type receptors.
Test [7] deals with 5-HT1B/1D type receptors. Description: Binding of [3H]5-HT or [125I]cyanopindolol to 5-HT1B/1D type receptors (short peptides).
Test [8] deals with 5-HT receptor. Put plainly: Ligand activity of modified LSAL peptides on the 5-HT receptor. The class given is binding.
In test [9] the target is D2 dopaminergic receptor of rat brain (rat) (UniProt P61169). Put plainly: radioligand binding, rat brain membranes, [3H]epiperone (2 nM) + 10 µM 5-HT, 1 nM peptide.
Chain of D2 dopaminergic receptor of rat brain (rat) (P61169 whole entry): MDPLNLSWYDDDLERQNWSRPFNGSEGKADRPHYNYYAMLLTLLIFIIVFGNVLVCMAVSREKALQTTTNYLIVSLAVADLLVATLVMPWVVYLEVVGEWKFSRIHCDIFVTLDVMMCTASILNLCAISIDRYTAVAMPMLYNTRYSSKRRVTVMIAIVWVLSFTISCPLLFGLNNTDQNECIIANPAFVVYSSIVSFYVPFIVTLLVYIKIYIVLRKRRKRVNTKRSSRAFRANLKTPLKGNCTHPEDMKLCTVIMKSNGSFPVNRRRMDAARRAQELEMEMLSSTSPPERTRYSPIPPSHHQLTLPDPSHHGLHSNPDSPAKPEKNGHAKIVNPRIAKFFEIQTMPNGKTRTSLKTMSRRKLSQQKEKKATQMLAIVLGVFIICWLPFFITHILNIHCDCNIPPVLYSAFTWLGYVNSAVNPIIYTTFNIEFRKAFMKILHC
Test [10] addresses 5-HT1B/1D receptors. Description: cell-based or functional assay.
The target of test [11] is 5-HT2A receptor of rat brain (rat) (UniProt P14842). Description: radioligand binding, rat brain membranes, [3H]DOB (5 nM), 1 nM peptide.
Chain of 5-HT2A receptor of rat brain (rat) (P14842 whole entry): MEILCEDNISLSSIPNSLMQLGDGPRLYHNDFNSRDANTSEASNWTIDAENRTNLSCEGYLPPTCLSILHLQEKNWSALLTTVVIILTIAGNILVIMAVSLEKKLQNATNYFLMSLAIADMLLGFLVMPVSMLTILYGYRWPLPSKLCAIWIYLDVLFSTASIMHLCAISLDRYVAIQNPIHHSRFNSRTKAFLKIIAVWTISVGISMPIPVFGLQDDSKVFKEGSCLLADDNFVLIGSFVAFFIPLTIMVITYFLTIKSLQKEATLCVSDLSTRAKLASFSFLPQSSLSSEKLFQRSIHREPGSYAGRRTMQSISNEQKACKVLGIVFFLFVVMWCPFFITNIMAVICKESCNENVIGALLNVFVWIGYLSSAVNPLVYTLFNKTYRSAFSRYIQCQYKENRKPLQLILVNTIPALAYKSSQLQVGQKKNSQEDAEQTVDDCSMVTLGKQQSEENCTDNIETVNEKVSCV
In test [12] the target is 5-HT1B/1D receptors. Put plainly: inhibition of [3H]5-HT binding to 5-HT1nonA sites.
Test [13] concerns the target T1, 5-HT1B receptor of rat brain. Description: inhibition of [125I]cyanopindolol binding, rat cerebral tissue homogenates.
Test [14] addresses opiate receptors of rat brain. Put plainly: radioligand binding, rat brain membranes, [3H]naloxone (2 nM), 1 nM peptide.
Test [15] addresses 5-HT1A receptors of rat brain (rat) (UniProt P19327). Description: radioligand binding, rat brain membranes, [3H]8-OH-DPAT (3 nM), 1 nM peptide.
The target of test [16] is 5-HT2A receptor of rat brain (rat) (UniProt P14842). Description: radioligand binding, rat brain membranes, [3H]ketanserin (5 nM), 1 nM peptide.
Test [17] has as its target 5-HT1EFC. Description: radioligand binding, rat brain membranes, [3H]5-HT (30 nM) + 20 nM 5-CT, 1 nM peptide.
Test [18] concerns the target muscarinic receptors of rat brain. Put plainly: radioligand binding, rat brain membranes, [3H]quinuclidinyl benzilate (3 nM), 1 nM peptide.
Test [19] concerns the target H1 histaminergic receptor of rat brain (rat) (UniProt P31390). Description: radioligand binding, rat brain membranes, [3H]mepyramine (5 nM), 1 nM peptide.
Test [20] addresses 5-HT1 receptors. Put plainly: inhibition of [3H]5-HT binding to 5-HT1 receptors, 10^-9 M peptide.
In test [21] the target is T2, 5-HT1D receptors in guinea pigs (guinea pig, UniProt Q60484 1-376).
T2 construct: Native tissue; preparation not described
T2 sequence (Q60484 whole entry): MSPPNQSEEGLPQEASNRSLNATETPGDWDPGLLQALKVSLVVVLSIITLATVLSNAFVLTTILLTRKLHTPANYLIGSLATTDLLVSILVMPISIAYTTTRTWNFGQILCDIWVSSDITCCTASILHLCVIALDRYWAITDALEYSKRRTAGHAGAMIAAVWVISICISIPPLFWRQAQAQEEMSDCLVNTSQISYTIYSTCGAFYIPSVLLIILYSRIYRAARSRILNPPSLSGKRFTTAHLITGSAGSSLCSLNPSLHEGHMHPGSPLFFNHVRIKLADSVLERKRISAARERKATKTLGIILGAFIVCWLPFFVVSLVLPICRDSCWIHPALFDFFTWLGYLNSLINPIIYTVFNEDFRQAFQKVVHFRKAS
Put plainly: inhibition of [3H]5-HT binding to 5-HT1D receptors, guinea pig.

The target of test [22] is 5-HT1 receptors. Put plainly: inhibition of [3H]5-HT binding to 5-HT1 receptors.
Test [23] deals with 5-HT3 receptor of rat brain (rat) (UniProt P35563). Put plainly: radioligand binding, rat brain membranes, [3H]BRL 43694 (3 nM), 1 nM peptide.
Chain of 5-HT3 receptor of rat brain (rat) (P35563 24-483): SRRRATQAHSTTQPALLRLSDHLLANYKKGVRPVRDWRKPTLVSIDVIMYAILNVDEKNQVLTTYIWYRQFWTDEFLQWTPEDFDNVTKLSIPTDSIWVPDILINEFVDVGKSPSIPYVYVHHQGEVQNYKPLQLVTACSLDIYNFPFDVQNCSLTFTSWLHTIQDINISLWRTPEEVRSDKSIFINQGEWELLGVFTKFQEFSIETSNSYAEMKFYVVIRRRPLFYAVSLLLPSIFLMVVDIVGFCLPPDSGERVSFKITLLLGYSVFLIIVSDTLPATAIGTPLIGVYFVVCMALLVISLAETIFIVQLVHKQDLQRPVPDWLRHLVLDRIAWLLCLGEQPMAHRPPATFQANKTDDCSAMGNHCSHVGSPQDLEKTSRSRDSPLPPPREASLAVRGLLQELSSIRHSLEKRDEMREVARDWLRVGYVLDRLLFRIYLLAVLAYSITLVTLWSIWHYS
Test [24] has as its target benzodiazepine receptors of rat brain. Description: radioligand binding, rat brain membranes, [3H]flunitrazepam (3 nM), 1 nM peptide.
Test [25] deals with α1 adrenergic receptors of rat brain. Description: radioligand binding, rat brain membranes, [3H]prazosin (2 nM), 1 nM peptide.
Test [26] concerns the target 5-HT1B/1D receptors. Put plainly: radioligand binding, rat brain membranes, [3H]5-HT (30 nM) + 0.1 µM 8-OH-DPAT, 1 nM peptide.
Test [27] deals with β adrenergic receptors of rat brain. Description: radioligand binding, rat brain membranes, [3H]dihydroalprenolol (3 nM) + 5-HT, 1 nM peptide.
Test [28] addresses T3, 5-HT1D receptors of human brain (human, UniProt P28221 1-377).
T3 construct: whole, on cells; Native tissue; preparation not described
Put plainly: inhibition of [3H]5-HT binding to 5-HT1D receptors, human brain.

No end group written: not given here.

T1 sequence (P28564 whole entry): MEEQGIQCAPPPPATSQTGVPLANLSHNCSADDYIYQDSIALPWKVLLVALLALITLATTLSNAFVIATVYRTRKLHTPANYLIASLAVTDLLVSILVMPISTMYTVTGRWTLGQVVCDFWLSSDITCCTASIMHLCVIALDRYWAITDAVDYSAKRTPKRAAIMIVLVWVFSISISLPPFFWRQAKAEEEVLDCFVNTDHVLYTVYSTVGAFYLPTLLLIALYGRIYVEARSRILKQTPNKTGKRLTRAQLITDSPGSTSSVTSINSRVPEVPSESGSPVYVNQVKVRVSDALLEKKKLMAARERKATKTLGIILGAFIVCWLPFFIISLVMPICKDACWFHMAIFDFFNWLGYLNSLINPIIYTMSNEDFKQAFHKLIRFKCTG
Chain of 5-HT1A receptors of rat brain (rat) (P19327 whole entry): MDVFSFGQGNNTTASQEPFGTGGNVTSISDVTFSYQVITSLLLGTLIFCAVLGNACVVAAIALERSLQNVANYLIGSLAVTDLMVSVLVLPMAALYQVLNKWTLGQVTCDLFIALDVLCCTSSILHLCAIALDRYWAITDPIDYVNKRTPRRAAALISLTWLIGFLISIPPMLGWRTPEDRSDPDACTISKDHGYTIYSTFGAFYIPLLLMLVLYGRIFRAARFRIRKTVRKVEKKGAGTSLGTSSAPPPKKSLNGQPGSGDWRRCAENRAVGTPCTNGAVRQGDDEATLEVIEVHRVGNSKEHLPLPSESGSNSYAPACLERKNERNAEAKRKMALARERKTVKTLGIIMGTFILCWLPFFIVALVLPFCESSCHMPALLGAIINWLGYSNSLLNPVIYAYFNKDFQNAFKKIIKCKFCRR
T3 sequence (P28221 whole entry): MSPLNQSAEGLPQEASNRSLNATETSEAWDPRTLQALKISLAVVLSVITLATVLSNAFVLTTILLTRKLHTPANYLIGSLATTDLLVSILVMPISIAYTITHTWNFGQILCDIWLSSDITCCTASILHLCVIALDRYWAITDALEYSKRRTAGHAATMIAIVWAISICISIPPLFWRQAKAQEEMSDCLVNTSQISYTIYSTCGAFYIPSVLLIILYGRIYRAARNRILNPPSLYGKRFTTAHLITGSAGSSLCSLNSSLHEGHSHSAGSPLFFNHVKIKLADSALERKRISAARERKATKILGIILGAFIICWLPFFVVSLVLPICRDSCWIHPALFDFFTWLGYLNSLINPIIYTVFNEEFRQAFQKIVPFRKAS
Chain of H1 histaminergic receptor of rat brain (rat) (P31390 whole entry): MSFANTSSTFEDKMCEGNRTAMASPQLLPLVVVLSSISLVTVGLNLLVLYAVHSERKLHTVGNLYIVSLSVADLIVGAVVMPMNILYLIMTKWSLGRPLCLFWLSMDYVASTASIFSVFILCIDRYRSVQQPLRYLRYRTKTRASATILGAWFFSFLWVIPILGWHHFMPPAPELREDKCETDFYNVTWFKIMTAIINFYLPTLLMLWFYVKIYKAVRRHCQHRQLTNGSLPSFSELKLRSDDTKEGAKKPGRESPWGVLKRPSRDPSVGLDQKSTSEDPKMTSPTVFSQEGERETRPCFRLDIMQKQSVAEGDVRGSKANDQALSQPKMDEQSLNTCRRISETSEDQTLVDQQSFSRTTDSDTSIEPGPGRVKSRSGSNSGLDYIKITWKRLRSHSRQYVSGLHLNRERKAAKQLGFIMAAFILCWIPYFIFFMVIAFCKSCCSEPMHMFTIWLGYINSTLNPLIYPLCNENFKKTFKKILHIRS

In the case of `C[C@H](N)C(=O)O` [ALA], the “RELATIVE POTENCY, Receptors 5-HT1B/D ([125I]-cyanopindolol)” value (“RELATIVE POTENCY … ([125I]-cyanopindolol)” for short) in test [1] is 1.7 ± 1.68 percentage of the LSAL effect. For the same molecule, in test [2], the “RELATIVE POTENCY, Receptors 5-HT1B/D ([3H]5-HT)” value (“RELATIVE POTENCY … ([3H]5-HT)” below) was 0 ± 4 percentage of the LSAL effect.

As to `CC(C)C[C@H](N)C(=O)O` [LEU], the “RELATIVE POTENCY … ([125I]-cyanopindolol)” value in [1] is 0 ± 2 percentage of the LSAL effect. In test [2], the “RELATIVE POTENCY … ([3H]5-HT)” value was 2 ± 9 percentage of the LSAL effect.

Consider `N[C@@H](CO)C(=O)O` [SER], for which, in test [1], the “RELATIVE POTENCY … ([125I]-cyanopindolol)” value was 0 ± 1.7 percentage of the LSAL effect. The “RELATIVE POTENCY … ([3H]5-HT)” value in test [2] was 0 ± 5 percentage of the LSAL effect.

`CN1Cc2c(N)cccc2C(c2ccccc2)C1` (stereo not shown) [nomifensine]: the “activity in the forced swimming test compared with the peptide” value in test [3] was “much more effective than the peptide”.

Take AC-LEU-SER-ALA-LEU: in [2], the “RELATIVE POTENCY … ([3H]5-HT)” value is recorded as 26.7 ± 10 percentage of the LSAL effect.

For AC-LEU-SER-ALA-LEU (peptide), in [4], the relative potency (% of the LSAL effect) (% of the LSAL effect) is 26.7.

Broadly, the IC50 is the concentration at which inhibition is half-maximal. Low readings indicate greater potency, high ones weaker potency. Take Ala-Leu (peptide): the values for the relative potency (% of the LSAL effect) (% of the LSAL effect) in test [5] and in [4] were 61.5 and 50, respectively. In test [6], the IC50 stood at 1000 nM.

Take “Ala-Leu-Leu-Ser (ALLS; printed: ALA-LEU-LEU-SER) [comparison peptide]”: the “activity on binding to the 5-HT1B/1D type receptors” value in test [7] is “inactive”. Also, the “RELATIVE POTENCY … ([125I]-cyanopindolol)” value in [1] was 23.6 ± 10.6 percentage of the LSAL effect. Also, in [2], the “RELATIVE POTENCY … ([3H]5-HT)” value was 10 ± 15 percentage of the LSAL effect.

With Ala-Leu-Leu-Ser (peptide), the relative potency (% of the LSAL effect) (% of the LSAL effect) in test [5] amounted to 23.6; in test [4], 10.

In turn, Ala-Leu-Ser (ALS) showed an IC50 in [7] of 1000 nM. In addition, in test [1], the “RELATIVE POTENCY … ([125I]-cyanopindolol)” value is 33.8 ± 10 percentage of the LSAL effect. Also, in [2], the “RELATIVE POTENCY … ([3H]5-HT)” value is reported as 28 ± 10 percentage of the LSAL effect.

On to Ala-Leu-Ser (peptide), for which the relative potency (% of the LSAL effect) (% of the LSAL effect) in test [5] amounted to 33.8; in test [4] it was 28. Moreover, in test [6], the IC50 was determined as 1000 nM.

With D-ALA-LEU (peptide), the relative potency (% of the LSAL effect) (% of the LSAL effect) in test [4] stood at 0.

As for LEU-ALA (peptide), the figures for the relative potency (% of the LSAL effect) (% of the LSAL effect) in test [5] and in test [4] were 1.7 and 1, respectively.

Molecule LEU-SER-ALA-LEU-NH2 (peptide) returned a relative potency (% of the LSAL effect) (% of the LSAL effect) in test [4] of 83.3.

For the molecule LSALGGGY, the “ligand activity on the 5-HT receptor” value in [8] is “still having a substantial activity”. Further, the “RELATIVE POTENCY … ([3H]5-HT)” value in test [2] was 80.9 ± 9.5 percentage of the LSAL effect.

Turning to Leu-Ser (peptide), the relative potency (% of the LSAL effect) (% of the LSAL effect) amounted to 53.8 in [5] and 45.7 in [4]. The molecule also yielded a half-maximal inhibitory concentration (IC50) in test [6] of 10000 nM.

With Leu-Ser-Ala-Leu-NH2, in [2], the “RELATIVE POTENCY … ([3H]5-HT)” value is recorded as 83.3 ± 16 percentage of the LSAL effect.

With SER-LEU (peptide), the relative potency (% of the LSAL effect) (% of the LSAL effect) in test [4] was determined as 4.

β-ALA-DL-LEU (peptide) came in with a relative potency (% of the LSAL effect) (% of the LSAL effect) in test [4] of 2.

In [4], β-ALA-LEU (peptide) registered a relative potency (% of the LSAL effect) (% of the LSAL effect) of 0.

With LSAL (also called LSAL; the peptide) [Leu-Ser-Ala-Leu], the inhibitory effect as % of the control (% of the control) was 2 in test [9]; 2 in test [11]; 10 in [14]; 0 in [15]; 10 in test [16]; 0 in test [17]. Moreover, the inhibitory effect as % of the control (% of the control) is 0 in [18]; 10 in test [19]; 0 in [23]; 2 in test [24]; 5 in [25]; 75 in test [26]. In addition, the inhibitory effect as % of the control (% of the control) in test [27] is 10. For the same molecule, the K+-induced liberation of [3H]5-HT from rat brain hippocampus synaptosomes, apparent IC50 in test [10] amounted to 10 pM. For the same molecule, the IC50 in test [12], in [13], in test [21], in test [22] and in test [28] was 0.01 nM throughout. The relative potency (% of the LSAL effect) (% of the LSAL effect) in test [4] is 100. Also, in [20], the maximum inhibitory effect was in the range of 30 to 50%.

LSALGGGY [Leu-Ser-Ala-Leu-Gly-Gly-Gly-Tyr] had a relative potency (% of the LSAL effect) (% of the LSAL effect) in test [4] of 80.9.

Source of the values: US6713443B1, “Compounds which modify serotoninergic transmission, diagnostic and therapeutic applications” (Institut Pasteur, priority 1993, dated 2004).
